Data taken from doi:10.1101/2020.08.10.245522.

What was measured:
[1] = molecular target: CA hexamer-2 (HIV-1 | not stated); test: SEC-MALS
[2] = molecular target: A14C/E45C disulfide crosslinked CA tubes (HIV-1); test: co-sedimentation
[3] = molecular target: CA hexamer-2 (HIV-1 | not stated); test: ITC

Chain of NUP153^1401-1475 (P49790 1401-1475): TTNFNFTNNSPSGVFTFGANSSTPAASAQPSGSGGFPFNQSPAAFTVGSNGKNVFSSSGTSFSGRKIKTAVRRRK

Substance	percent bound to CA tubes [2] [%]	also measured
NUP153^1401-1475 (from UniProt P49790 1401-1475) (domain or fragment)	–	stoichiometry N (NUP153^1401-1475 per hexamer-2) [1]: 1
NUP153^1411-1465 (from UniProt P49790 1411-1464) (domain or fragment)	25	–
NUP153^1411-1475/1425-1464Δ peptide (25 aa) (from UniProt P49790 1411-1475)	–	Kd [3]: 800 nM
NUP153^1465-1475 (from UniProt P49790 1465-1475) (domain or fragment)	50	–
